In patent US20160046921A1:

Key:
[1] = target: T1, Pro-Gly
T1 chain: PG

[2] = target: cys-gly-conjugate (compound of formula FIII); test: cell-based or functional assay
[3] = target: T2, Ala-Ala
T2 chain: AA

[4] = target: T3, Ala-Gly
T3 chain: AG

[5] = target: T4, Gly-Gly
T4 chain: GG

[6] = target: T5, H-Cys(Bzl)-Gly-OH (S-benzyl-Cys-Gly)
T5 chain: CG

[7] = target: T6, Z-Gly-Gly
T6 chain: GG

[8] = target: T7, cys-gly-conjugate (compound of formula FIII)
T7 chain: CG

B1: Ax20 peptidase (peptidase from Corynebacterium sp. Ax20, SEQ ID NO:2), recombinant, without histidine tag (enzyme)
chain: MSNDKAATSTNFNLTPNRERIFQELSELISHYSPHSMPEHADTHEEAAKWVTAKLEELGLDVTRHPTVDDADTIIGVKEPVGDAPTILLYSHYDVVPAQNPAVWTNDPLELDERDGRWYGRGAADCKGNVIMHLEALRMVQENGGTDLGLKVVMEGSEELGGEDGLGKLIDANPELFTADVIFIGDGGNVAVGIPTLTTHLRGGAQLRFKVDTLEGPVHSGGWGGAAPDAAHALIRIIDSFFDEHGRTTIEGVDTTAKWEGDPYDRETFRKDARVLDGVQLLGTVDDEPADMVWARPAITVIGFTSVPVEDATNIVNPTAEAQFNLRVPAPQSAAEVAKKVEEQIRARAPWGAKVEVSITGVNEPFSTDPNGPAVQHFGKCLQDAYGAEHLTVVGTGGSIPLTVTLQKHFPDAEFALYGVADPAANIHGVDESVDPTEIEHVAIAEAEFLLTYGK
[1]
  release of a free NH2 group (fluorescamine derivatisation): Cleavage of the peptide substrate Pro-Gly by addition of the recombinant Ax20 peptidase (SEQ ID NO: 2) released a unique free NH2 group
[2]
  release of 3-sulfanyl-3-methyl-hexanol from the Cys-Gly-conjugate [mM]; 10 fold dilution of clear cell lysate, + β-lyase: 1 mM
  release of 3-sulfanyl-3-methyl-hexanol from the Cys-Gly-conjugate [mM]; 100 fold dilution of clear cell lysate, + β-lyase: 0.92 mM
  release of 3-sulfanyl-3-methyl-hexanol from the Cys-Gly-conjugate [mM]; 1000 fold dilution of clear cell lysate, + β-lyase: 0.46 mM

B2: Ax20 peptidase with histidine tag (SEQ ID NO:2 ligated to a 6x Histidine-Tag), recombinant (enzyme, not shown: small tags and cut ends)
chain: B1 chain
[3]
  Cleavage (thin layer chromatography): ++
[4]
  Cleavage (thin layer chromatography): ++
[5]
  Cleavage (thin layer chromatography): +
[6]
  Cleavage (thin layer chromatography): +++
[1]
  Cleavage (thin layer chromatography): +
[7]
  Cleavage (thin layer chromatography): -
[8]
  Cleavage (thin layer chromatography): +++
[2]
  release of 3-sulfanyl-3-methyl-hexanol from the Cys-Gly-conjugate [mM]; 10 fold dilution of clear cell lysate, + β-lyase: 0.94 mM
  release of 3-sulfanyl-3-methyl-hexanol from the Cys-Gly-conjugate [mM]; 100 fold dilution of clear cell lysate, + β-lyase: 0.88 mM
  release of 3-sulfanyl-3-methyl-hexanol from the Cys-Gly-conjugate [mM]; 1000 fold dilution of clear cell lysate, + β-lyase: 0.36 mM

B3: β-lyase from Corynebacterium sp. Ax20 (cystathionine-β-lyase, metC gene product) (protein)
chain: MQFSNLDTLRTRGTRKWTQFDDDVIPMFVAESDFPTAPAIKEAIIDACEREMFGYTPAPHAHHLGEAVADFYDWRYGWRPDAAKIFPVADVVRGVLLAIQYFTDGDVIVPVPAYFPFLPIAEAAGRNRIDISSDKGLEGGLDMAEVEEAFKNGAGSIIVTNPFNPGGWMFTSEELDQICDIARRYKGRVLVDEIHAPLTYGKRHVCAAANNPDVCITVTATSKAWNVAGLKCAQMIFTNDEDVKTWNAINPVAKDGVGTLGIIAAEAAYESGREHLDWQVEQLKANRDWLVENLPSLIPGIRFEIPDATYLMFLDFKDTKLGVDKPAAYLLKHARVALSEGVDFGPGGEHRARMNFATSPEILKEATERIARAIEVV
[8]
  release of 3-sulfanyl-3-methyl-hexanol from cys-gly-conjugate [mM] (gas chromatography): < 0.03 mM
